Values quoted from earlier work, collected in PMC3478875.
Read-outs that look alike come from different tables or passages of the source.

Tests used:
[1] = biological target: Glu-plasminogen (Homo sapiens) (UniProt P00747)
[2] = biological target: plasminogen (Homo sapiens) (UniProt P00747)
[3] = biological target: plasminogen (Homo sapiens) (UniProt P00747); remark: listed apart in the source
[4] = biological target: Glu-plasminogen (Homo sapiens) (UniProt P00747); remark: listed apart in the source
[5] = biological target: Lys-plasminogen (Homo sapiens) (UniProt P00747)
[6] = biological target: plasminogen (Homo sapiens) (UniProt P00747); remark: listed apart in the source
plasmin (Homo sapiens) = plasmin (Homo sapiens) (UniProt P00747)

Substance: Outer surface protein A (OspA) (from UniProt Q09087)
- Kd [1]: 260000 nM

Substance: DnaK (from UniProt B8DT62)
- Kd [2]: 12 nM

Substance: Fructose-1,6-bisphosphate aldolase (from UniProt P9WQA2)
- Kd [3]: 6.73 nM

Substance: alpha-enolase (from UniProt P69949)
- Kd [4]: 1.6 nM
- Kd [5]: 127 nM

Substance: GAPDH (from UniProt Q59906)
- Kd [6]: 220 nM
- Kd (plasmin (Homo sapiens)): 25 nM
